± gives the standard error. For some assays here: Fewer inactive variants are shown than the library holds.
B1: glmS ribozyme (parent)
chain: AUAAAAGCGCCAGAACUACAGAAAUGUAGUUGACGAGGAGGAGGUUUAUCGAAUUUUCGGCGGAUGCCUCCAAA

Legend:
Details in all cases: with glucosamine-6-phosphate
glucosamine-6-phosphate [1] = variants of: B1; assay: kcat; higher = faster cleavage; RNA array
In short: (§1)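 Barcoded ribozyme variants, transcribed in situ by E. coli RNA polymerase on sequenced MiSeq chips, were followed via a hybridised Cy3 probe at 37 °C. Glucosamine-6-phosphate ranged from 40 μM to 10 mM in HEPES/KCl/Mg(OAc)2 buffer. kobs came from decay fits to per-tile medians, and kcat and KM from weighted Michaelis–Menten fits.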

glucosamine-6-phosphate [2] = variants of: B1; assay: KM; higher = weaker cofactor use; RNA array
In short: as §1

glucosamine-6-phosphate [3] = variants of: B1; assay: self-cleavage kobs at 40 uM GlcN6P; higher = faster cleavage; RNA array
In short: as §1

glucosamine-6-phosphate [4] = variants of: B1; assay: self-cleavage kobs at 160 uM GlcN6P; higher = faster cleavage; RNA array
In short: as §1

glucosamine-6-phosphate [5] = variants of: B1; assay: self-cleavage kobs at 640 uM GlcN6P; higher = faster cleavage; RNA array
In short: as §1

glucosamine-6-phosphate [6] = variants of: B1; assay: self-cleavage kobs at 2500 uM GlcN6P; higher = faster cleavage; RNA array
In short: as §1

glucosamine-6-phosphate [7] = variants of: B1; assay: self-cleavage kobs at 10000 uM GlcN6P; higher = faster cleavage; RNA array
In short: as §1

| Variant | kcat (glucosamine-6-phosphate [1]) [s⁻¹] | KM (glucosamine-6-phosphate [2]) [µM] | self-cleavage kobs at 40 uM GlcN6P (glucosamine-6-phosphate [3]) [s⁻¹] | self-cleavage kobs at 160 uM GlcN6P (glucosamine-6-phosphate [4]) [s⁻¹] | self-cleavage kobs at 640 uM GlcN6P (glucosamine-6-phosphate [5]) [s⁻¹] | self-cleavage kobs at 2500 uM GlcN6P (glucosamine-6-phosphate [6]) [s⁻¹] | self-cleavage kobs at 10000 uM GlcN6P (glucosamine-6-phosphate [7]) [s⁻¹] |
| --- | --- | --- | --- | --- | --- | --- | --- |
| U47C A64G | 0.00525 ± 0.0013 | 1890 ± 650 | 0.000131 ± 1.7e-05 | 0.000324 ± 9e-05 | 0.00115 ± 0.00027 | 0.0019 ± 0.00068 | 0.00499 ± 0.00066 |
| U47C A64U | 0.000108 ± 8.5e-06 | 363 ± 170 |  |  | 7.89e-05 ± 1.8e-05 | 9.46e-05 ± 2.2e-05 | 0.000102 ± 1.2e-05 |
| U47A U69G | 7.34e-05 ± 1.1e-05 |  |  |  | 7.68e-05 ± 1.1e-05 | 8.85e-05 ± 1.1e-05 | 5.37e-05 ± 1e-05 |
| A48C C67A | 0.000168 ± 1e-05 | 1800 ± 310 |  |  | 4.27e-05 ± 9.9e-06 | 0.000104 ± 1.4e-05 | 0.00014 ± 1.4e-05 |
| U47G A53G U57C C68U | 9.73e-05 ± 3.2e-05 |  |  |  | 3.09e-05 ± 1.2e-05 | 3.84e-05 ± 1.3e-05 | 8.44e-05 ± 1.8e-05 |
| A48G C68U | 0.000161 ± 4.8e-05 |  |  | < 1e-05 |  |  | 4.18e-05 ± 8.3e-06 |
| U47A U65G | 0.00507 ± 0.0003 | 3540 ± 320 | 5.62e-05 ± 9.4e-06 | 0.000236 ± 6.6e-05 | 0.000735 ± 0.00012 | 0.00229 ± 0.00035 | 0.00369 ± 0.00037 |
| U47A U65C | 0.000833 ± 0.00017 | 2410 ± 980 |  |  | 0.000158 ± 3.6e-05 | 0.000533 ± 0.00012 | 0.000645 ± 0.00011 |
| U47C U49C | < 1e-05 |  |  |  | < 1e-05 |  |  |
| A48G C50A G63A | < 1e-05 |  |  | < 1e-05 |  |  | < 1e-05 |
| U47G U49A | 1.31e-05 ± 3.3e-06 |  |  |  |  |  |  |
| A48C C70U | 0.000564 ± 5.5e-05 | 3470 ± 540 |  |  | 8.59e-05 ± 1.5e-05 | 0.000254 ± 3.9e-05 | 0.000401 ± 7.4e-05 |
| U47G U56C A64G | 0.000113 ± 1.2e-05 | 1500 ± 480 |  |  | 2.82e-05 ± 1.4e-05 | 7.42e-05 ± 1.5e-05 | 9.62e-05 ± 1.7e-05 |
| U47A C61A C70G C71U | 1.64e-05 ± 4.7e-06 |  |  |  |  |  |  |
| A48G C71U | 8.1e-05 ± 1.3e-05 |  |  |  | 4.86e-05 ± 8.2e-06 | 0.000101 ± 1.1e-05 | 7.03e-05 ± 6.3e-06 |
| A48G C71A | 2.26e-05 ± 4.7e-06 |  |  |  |  | 2.93e-05 ± 1.3e-05 |  |

| Variant | kcat (glucosamine-6-phosphate [1]) [s⁻¹] | KM (glucosamine-6-phosphate [2]) [µM] | self-cleavage kobs at 40 uM GlcN6P (glucosamine-6-phosphate [3]) [s⁻¹] | self-cleavage kobs at 160 uM GlcN6P (glucosamine-6-phosphate [4]) [s⁻¹] | self-cleavage kobs at 640 uM GlcN6P (glucosamine-6-phosphate [5]) [s⁻¹] | self-cleavage kobs at 2500 uM GlcN6P (glucosamine-6-phosphate [6]) [s⁻¹] | self-cleavage kobs at 10000 uM GlcN6P (glucosamine-6-phosphate [7]) [s⁻¹] |
| --- | --- | --- | --- | --- | --- | --- | --- |
| U47G C70A | 0.000101 ± 9.5e-06 |  | 3.74e-05 ± 1.6e-05 | 0.000107 ± 1.5e-05 | 9.99e-05 ± 1.3e-05 | 0.000111 ± 1.3e-05 | 8.94e-05 ± 8.5e-06 |
| U46G U65G | 0.00226 ± 0.00027 | 2130 ± 380 | 4.1e-05 ± 8.8e-06 | 0.000189 ± 3.4e-05 | 0.000467 ± 7.5e-05 | 0.00124 ± 0.00017 | 0.0019 ± 0.0003 |
| U46G U65C | 4.23e-05 ± 1.3e-06 | 1730 ± 260 |  |  |  |  | 3.6e-05 ± 7.3e-06 |
| A48C U56C | 5.47e-05 ± 1.8e-06 | 357 ± 160 |  |  | < 1e-05 | 4.83e-05 ± 1.6e-05 | 5.27e-05 ± 1.2e-05 |
| A48G U56C | 5.09e-05 ± 1.7e-06 | 3700 ± 360 |  |  |  |  | 3.71e-05 ± 1.1e-05 |
| A48G U56G | 7.92e-05 ± 1.9e-06 | 696 ± 110 | < 1e-05 |  |  | 6.4e-05 ± 1.3e-05 | 7.35e-05 ± 8.9e-06 |
| U47C A53U | 0.00157 ± 0.00025 | 1150 ± 280 | 4.38e-05 ± 9.7e-06 | 0.000209 ± 4.6e-05 | 0.000671 ± 0.00012 | 0.0012 ± 0.00023 | 0.00124 ± 0.00025 |
| U47A U56G | 0.0204 ± 0.0071 | 3000 ± 1300 | 0.000264 ± 4.1e-05 | 0.000981 ± 0.00018 | 0.00418 ± 0.00053 | 0.0064 ± 0.0017 | 0.0194 ± 0.0038 |
| U47A U56C | 0.00368 ± 0.00095 | 3940 ± 1500 |  | 0.000111 ± 2.1e-05 | 0.000703 ± 8.8e-05 | 0.00144 ± 0.00021 | 0.00257 ± 0.00031 |
| U47G U65G | 0.00249 ± 0.00033 | 2760 ± 530 | 3.08e-05 ± 1.1e-05 | 0.000153 ± 2e-05 | 0.000451 ± 7e-05 | 0.00107 ± 0.00015 | 0.0021 ± 0.00028 |
| U47G A53G | 0.00632 ± 0.0012 | 804 ± 250 | 0.000319 ± 4.7e-05 | 0.000975 ± 0.00019 | 0.00317 ± 0.00055 | 0.00362 ± 0.00064 | 0.0074 ± 0.00097 |
| U47C C70A | 0.000334 ± 9.1e-05 |  |  |  | 0.000119 ± 2.1e-05 | 0.000426 ± 9.7e-05 | 0.000264 ± 4.8e-05 |
| U46G U69C | 0.0015 ± 0.00017 | 539 ± 120 | 0.000136 ± 3.6e-05 | 0.000315 ± 7.8e-05 | 0.00072 ± 0.00016 | 0.00128 ± 0.00028 | 0.00149 ± 0.00027 |
| U46G U69A | 0.000212 ± 5.4e-05 |  | 6.14e-05 ± 1.9e-05 | 9.88e-05 ± 1.7e-05 | 0.000212 ± 4.2e-05 | 0.000306 ± 4.6e-05 | 0.000143 ± 3.6e-05 |
| U47C U54G | 0.00375 ± 0.00045 | 1210 ± 200 | 0.000121 ± 1.7e-05 |  | 0.0013 ± 0.00028 | 0.00193 ± 0.00076 | 0.00359 ± 0.00065 |
